Substrate in the data set: CC(=O)SCCNC(=O)CCNC(=O)[C@H](O)C(C)(C)COP(=O)(O)OP(=O)(O)OC[C@H]1O[C@@H](n2cnc3c(N)ncnc32)[C@H](O)[C@@H]1OP(=O)(O)O
The data set can be described thus: purified protein. The class given is biochemical, Caenorhabditis elegans. The settings on record: GlcN-6P constant, 25 mM Tris-HCl pH 7.5, 250 mM NaCl, 2 mM EDTA, 5% glycerol, 293 K, 20.0 °C.

Positions count from the first letter of the chain named. Names and notes keep the numbering of the source.

B1: CeGNA1 (Caenorhabditis elegans) (protein)
chain: MSHIFDASVLAPHIPSNLPDNFKVRPLAKDDFSKGYVDLLSQLTSVGNLDQEAFEKRFEAMRTSVPNYHIVVIEDSNSQKVVASASLVVEMKFIHGAGSRGRVEDVVVDTEMRRQKLGAVLLKTLVSLGKSLGVYKISLECVPELLPFYSQFGFQDDCNFMTQRF
notes: full-length, 165 residues; GST fusion from pGEX-6P-1 in E. coli BL21(DE3) pLysS, GST cut with PreScission protease; homodimer; 18 876 Da by MALDI
As to B1, for the setting “3 nM enzyme”, the Km is on record as 192 ± 16 µM, the catalytic constant (kcat) was found to be 252 s⁻¹ and the kcat/Km is 1.3e+06 M⁻¹ s⁻¹.

B2: CeGNA1 (Caenorhabditis elegans; C141S) (protein)
chain: B1 chain with C141S
notes: as for B1
As for B2, for the setting “10 nM enzyme”, the Michaelis constant (Km) was found to be 261 ± 33 µM, the turnover number (kcat) was found to be 48 s⁻¹ and the catalytic efficiency (kcat/Km) was 200000 M⁻¹ s⁻¹.

Broadly, the Km is the concentration of substrate that gives half-maximal velocity. In general, kcat refers to the number of substrate molecules converted per active site and unit of time at saturation. As a reminder, the kcat/Km is the second-order rate constant that governs catalysis at low substrate concentration.

These data come from PMC3413214, “Structural and biochemical characterization of a trapped coenzyme A adduct of Caenorhabditis elegans glucosamine-6-phosphate N-acetyltransferase 1” (Acta Crystallographica Section D: Biological Crystallography, 2012).
